We go through one molecule from patent US20240343800A1 (Merck KGaA, published 2024).

Assay [1] deals with T1, human CD3 (on Jurkat T cells or human CD8+ T cells) (human, UniProt P07766 23-207; P09693 23-182; P04234 22-171; P20963 22-164).
T1 construct: Entries are printed with signal peptides; also called huCD3; CD3ε
The assay can be described thus: flow cytometry, Jurkat T cells. The procedure: (§1) After washing twice with 200 μL of phosphate buffered saline (PBS) by centrifugation at 500×g for 5 minutes at room temperature, the cells were resuspended in 100 μL of Live/Dead fixable green working buffer (ThermoFisher Scientific, Cat No: L23101; one vial of Live/Dead fixable green powder was dissolved into 50 μL of DMSO and 1 μL of dissolved Live/Dead fixable green was added to 1 mL of PBS to prepare the working buffer). After 15-minutes of incubation at room temperature, the cells were washed twice with 200 μL of PBS by centrifugation at 500×g for 5 minutes at room temperature and resuspended in […] of 10% goat serum in BD staining buffer (BD Biosciences, Cat No: 554657). […] The plates were then covered with foil to avoid direct light and incubated for 60 minutes at 4° C. […] After incubating for 30 minutes at 4° C., the cells were washed twice with 200 μL of PBS by centrifugation at 500×g for 5 minutes at room temperature and resuspended into 100 μL of fixation buffer (BioLegend, Cat No: 420801). The samples were then analyzed on a flow cytometer for binding signal using FlowJo software. ROR and CD3 binding EC₅₀s (concentration vs mean fluorescence intensity (MFI)) for reference molecules and test bispecific TCEs were obtained using 4-parameter non-linear regression curve fitting in GraphPad Prism.

For assay [2], the target named is T1, human CD3 (on Jurkat T cells or human …). The assay can be described thus: flow cytometry, human CD8+ T cells; reference: 82H02 TCE #1 and #3. How it is done: as §1, with “After” for “After washing twice with 200 μL of phosphate buffered saline (PBS) by centrifugation at 500×g for 5 minutes at room temperature, the cells were resuspended in 100 μL of Live/Dead fixable green working buffer (ThermoFisher Scientific, Cat No: L23101; one vial of Live/Dead fixable green powder was dissolved into 50 μL of DMSO and 1 μL of dissolved Live/Dead fixable green was added to 1 mL of PBS to prepare the working buffer). After”

For assay [3] the target is unchanged. The experiment in a line: flow cytometry, human CD8+ T cells. The procedure: as §1, with “After” for “After washing twice with 200 μL of phosphate buffered saline (PBS) by centrifugation at 500×g for 5 minutes at room temperature, the cells were resuspended in 100 μL of Live/Dead fixable green working buffer (ThermoFisher Scientific, Cat No: L23101; one vial of Live/Dead fixable green powder was dissolved into 50 μL of DMSO and 1 μL of dissolved Live/Dead fixable green was added to 1 mL of PBS to prepare the working buffer). After”

For assay [4] the target is unchanged. The experiment in a line: flow cytometry; reference: 69A02 and 82H02 TCEs in Format 1A. How it is done:
(§2) The plates were then covered with foil to avoid direct light and incubated for 60 minutes at 4° C. […] After incubating for 30 minutes at 4° C., the cells were washed twice with 200 μL of PBS by centrifugation at 500×g for 5 minutes at room temperature and resuspended into 100 μL of fixation buffer (BioLegend, Cat No: 420801). The samples were then analyzed on a flow cytometer for binding signal using FlowJo software. ROR and CD3 binding EC₅₀s (concentration vs mean fluorescence intensity (MFI)) for reference molecules and test bispecific TCEs were obtained using 4-parameter non-linear regression curve fitting in GraphPad Prism.

For assay [5], the target named is T2, chimeric CD3ε of human CD3 knock-in C57BL/6 mice (ectodomain of human CD3, transmembrane and cytosolic … (human; mouse, UniProt P07766 23-126; P22646 109-189).
T2 construct: extracellular domain;domain: transmembrane and cytosolic domains; On T cells isolated from the knock-in mice; also called human/mouse chimeric CD3; huCD3 knock-in
The experiment in a line: flow cytometry, T cells of huCD3 knock-in C57BL/6 mice. The procedure:
as §2

Assay [6] addresses T1, human CD3 (on Jurkat T cells or human …). The assay can be described thus: flow cytometry; reference: 69A02 and 82H02 TCEs in Format 1B. The procedure:
as §2

T1 sequence (P07766 23-207 limits assumed, chain 1 of 4): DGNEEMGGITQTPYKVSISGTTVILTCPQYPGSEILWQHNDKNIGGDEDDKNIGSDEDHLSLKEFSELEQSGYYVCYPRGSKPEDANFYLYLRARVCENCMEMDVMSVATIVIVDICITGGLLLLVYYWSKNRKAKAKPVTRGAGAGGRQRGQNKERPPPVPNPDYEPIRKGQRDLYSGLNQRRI
T1 sequence (P09693 23-182 limits assumed, chain 2 of 4): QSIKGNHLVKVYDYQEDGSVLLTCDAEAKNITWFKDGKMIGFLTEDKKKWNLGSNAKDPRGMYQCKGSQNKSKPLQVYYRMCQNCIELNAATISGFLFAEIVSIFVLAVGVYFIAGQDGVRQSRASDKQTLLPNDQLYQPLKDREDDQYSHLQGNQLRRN
T1 sequence (P04234 22-171 limits assumed, chain 3 of 4): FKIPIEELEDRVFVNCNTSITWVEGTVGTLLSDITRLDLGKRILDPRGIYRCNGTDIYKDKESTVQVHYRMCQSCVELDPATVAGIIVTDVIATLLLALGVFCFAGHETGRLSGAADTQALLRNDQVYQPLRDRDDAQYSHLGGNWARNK
T1 sequence (P20963 22-164 limits assumed, chain 4 of 4): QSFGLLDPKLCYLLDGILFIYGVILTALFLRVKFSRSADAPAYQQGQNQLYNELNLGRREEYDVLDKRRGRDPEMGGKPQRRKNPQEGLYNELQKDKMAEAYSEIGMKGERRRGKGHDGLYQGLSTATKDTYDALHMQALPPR
T2 sequence (P07766 other isoform, or with tags, fused parts or gaps mutant): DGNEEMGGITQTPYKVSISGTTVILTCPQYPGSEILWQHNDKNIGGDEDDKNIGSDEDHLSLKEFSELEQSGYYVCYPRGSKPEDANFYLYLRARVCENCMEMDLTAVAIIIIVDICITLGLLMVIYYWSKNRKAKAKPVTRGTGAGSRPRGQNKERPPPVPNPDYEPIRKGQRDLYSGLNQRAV

B1: bispecific reference T cell-binder (bispecific antibody)
light: ELVLTQSPSVSAALGSPAKITCTLSSAHKTDTIDWYQQLQGEAPRYLMQVQSDGSYTKRPGVPDRFSGSSSGADRYLIIPSVQADDEADYYCGADYIGGYVFGGGTQLTVLGQPKAAPSVTLFPPSSEELQANKATLVCLISDFYPGAVTVAWKADSSPVKAGVETTTPSKQSNNKYAASSYLSLTPEQWKSHKSYSCQVTHEGSTVEKTVAPTECS
heavy 1: not shown
heavy 2: QEQLVESGGRLVTPGGSLTLSCKASGFDFSAYYMSWVRQAPGKGLEWIATIYPSSGKTYYATWVNGRFTISSDNAQNTVDLQMNSLTAADRATYFCARDSYADDGALFNIWGPGTLVTISSASTKGPSVFPLAPSSKSTSGGTAALGCLVKDYFPEPVTVSWNSGALTSGVHTFPAVLQSSGLYSLSSVVTVPSSSLGTQTYICNVNHKPSNTKVDKKVEPKSCDKTHTCPPCPAPEAAGGPSVFLFPPKPKDTLMISRTPEVTCVVVDVSHEDPEVKFNWYVDGVEVHNAKTKPREEQYNSTYRVVSVLTVLHQDWLNGKEYKCKVSNKALGAPIEKTISKAKGQPREPQVCTLPPSRDELTKNQVSLSCAVKGFYPSDIAVEWESNGQPENNYKTTPPVLDSDGSFFLVSKLTVDKSRWQQGNVFSCSVMHEALHNHYTQKSLSLSPGK
chain: QAVVTQEPSLTVSPGGTVTLTCGSSTGAVTTSNYANWVQEKPGQAFRGLIGGTNKRAPGTPARFSGSLLGGKAALTLSGAQPEDEAEYYCALWYSNLWVFGGGTKLTVLSSASTKGPSVFPLAPSSKSTSGGTAALGCLVKDYFPEPVTVSWNSGALTSGVHTFPAVLQSSGLYSLSSVVTVPSSSLGTQTYICNVNHKPSNTKVDKKVEPKSC
notes: ROR1 x CD3 bispecific of four polypeptides
For B1, the EC50 in assay [1] was found to be 157 nM; in assay [3] it was 266 nM; in assay [5], 259 nM. Further, the fold lower affinity in assay [2] is around 100 fold. Moreover, the “fold lower apparent binding affinity” value is around 15 fold in assay [4] and around 4 fold in assay [6].
